Substitutions are numbered along the chain they refer to.
T1: canine IL-4 (canine, UniProt O77762 25-132, biotin-labeled in the Octet assay (site not stated))
T1 construct: Biotin-labeled and loaded on SA biosensors for the kinetics; unlabeled recombinant protein in the DH82 cell assay; also called cIL-4; canine Interleukin-4
T1 sequence (looked up): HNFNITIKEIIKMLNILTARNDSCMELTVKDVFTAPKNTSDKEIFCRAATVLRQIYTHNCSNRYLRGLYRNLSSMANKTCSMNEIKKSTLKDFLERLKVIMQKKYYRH

T2: canine IL-13 (canine, UniProt Q9N0W9 19-131, limits assumed, biotin-labeled in the Octet assay (site not stated))
T2 construct: Biotin-labeled and loaded on SA biosensors for the kinetics; unlabeled in the DH82 cell assay; also called cIL-13; canine Interleukin-13
T2 sequence (looked up): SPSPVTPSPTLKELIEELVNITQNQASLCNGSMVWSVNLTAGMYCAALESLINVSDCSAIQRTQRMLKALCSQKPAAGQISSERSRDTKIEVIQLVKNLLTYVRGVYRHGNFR

B1: cIL-4Rα-cIgGB-Fc (Fc fusion)
chain: VKVLHEPSCFSDYISTSVCQWKMDHPTNCSAELRLSYQLDFMGSENHTCVPENREDSVCVCSMPIDDAVEADVYQLDLWAGQQLLWSGSFQPSKHVKPRTPGNLTVHPNISHTWLLMWTNPYPTENHLHSELTYMVNVSNDNDPEDFKVYNVTYMGPTLRLAASTLKSGASYSARVRAWAQTYNSTWSDWSPSTTWLNYYEPWEQHLPPKRENGRVPRPPDCPKCPAPEMLGGPSVFIFPPKPKDTLLIARTPEVTCVVVDLDPEDPEVQISWFVDGKQMQTAKTQPREEQFNGTYRVVSVLPIGHQDWLKGKQFTCKVNNKALPSPIERTISKARGQAHQPSVYVLPPSREELSKNTVSLTCLIKDFFPPDIDVEWQSNGQQEPESKYRTTPPQLDEDGSYFLYSKLSVDKSRWQRGDTFICAVMHEALHNHYTQESLSHSPGK
notes: Homodimer held by hinge disulfides; made in CHO cells, purified on protein A; also called cIL-4Rα-cFc; cIL4Rα-cFc
B2: cIL-4Rα-13Rα1_ZW1-cFc (Fc fusion)
chain 1: B1 chain with L347Y, F403A, Y405V
chain 2: GGVAAPTETQPPVTNLSVSVENLCTVIWTWDPPEGASPNCTLRYFSHFDNKQDKKIAPETHRSKEVPLNERICLQVGSQCSTNESDNPSILVEKCTPPPEGDPESAVTELQCVWHNLSYMKCTWLPGRNTSPDTNYTLYYWHSSLGKILQCEDIYREGQHIGCSFALTNLKDSSFEQHSVQIVVKDNAGKIRPSFNIVPLTSHVKPDPPHIKRLFFQNGNLYVQWKNPQNFYSRCLSYQVEVNNSQTETNDIFYVEEAKCQNSEFEGNLEGTICFMVPGVLPDTLNTVRIRVRTNKLCYEDDKLWSNWSQAMSIGENTDPTPKRENGRVPRPPDCPKCPAPEMLGGPSVFIFPPKPKDTLLIARTPEVTCVVVDLDPEDPEVQISWFVDGKQMQTAKTQPREEQFNGTYRVVSVLPIGHQDWLKGKQFTCKVNNKALPSPIERTISKARGQAHQPSVYVLPPSREELSKNTVSLLCLIKDFFPPDIDVEWQSNGQQEPESKYLTWPPQLDEDGSYFLYSKLSVDKSRWQRGDTFICAVMHEALHNHYTQESLSHSPGK
notes: also called cIL4Rα-IL13Rα1_ZW1-cFc; cIL-4Rα-IL-13Rα1_ZW1-cFc
B3: cIL-4Rα-cIgGB-Fc-YTE (Fc fusion)
chain: B1 chain with L248Y, A250T, T252E
notes: Homodimer; also called cIL-4Rα-cFc-YTE
B4: cIL-4Rα-cIgGB-Fc-H (Fc fusion)
chain: B1 chain with N432H
notes: Homodimer; also called cIL-4Rα-cFc-H; cIL-4Rα-cFc-NH
B5: cIL-13Rα1-cIgGB-Fc-YTE (Fc fusion)
chain: B2 chain 2 with L361Y, A363T, T365E, L475T, L503R, W505T
notes: Homodimer; also called cIL-13Rα1-cFc-YTE
B6: cIL-13Rα2-cIgGB-Fc-YD (Fc fusion)
chain: SMLSNAEIKVNPPQDFEIVDPGYLGYLSLQWQPPLFPDNFKECTIEYELKYRNIDSENWKTIITKNLHYKDGFDLNKGIEAKINTLLPAQCTNGSEVRSSWAETTYWTSPQGNRETKIQDMDCVYYNWQYLVCSWKPGMGVHFDTNYQLFYWYEGLDHSAECTDYIKVNGKNMGCRFPYLESSDYKDFYICVNGSSESQPIRPSYFIFQLQNIVKPMPPDYLSLTVKNSEEINLKWNMPKGPIPAKCFIYEIEFTEDGTTWVTTTVENEIQITRTSNESQKLCFLVRSKVNIYCSDDGIWSEWSDEQCWKGDIWKETPKRENGRVPRPPDCPKCPAPEMLGGPSVFIFPPKPKDTLYIARDPEVTCVVVDLDPEDPEVQISWFVDGKQMQTAKTQPREEQFNGTYRVVSVLPIGHQDWLKGKQFTCKVNNKALPSPIERTISKARGQAHQPSVYVLPPSREELSKNTVSLTCLIKDFFPPDIDVEWQSNGQQEPESKYRTTPPQLDEDGSYFLYSKLSVDKSRWQRGDTFICAVMHEALHNHYTQESLSHSPGK
notes: Homodimer; also called cIL-13Rα2-cFc-YD
B7: cIL-13Rα2-cIgGB-Fc (Fc fusion)
chain: B6 chain with Y357L, D361T
notes: Homodimer; also called cIL-13Rα2-cFc; cIL13Rα2-cFc
B8: cIL-13Rα2-cIgGB-Fc-YTE (Fc fusion)
chain: B6 chain with A359T, D361E
notes: Homodimer; also called cIL-13Rα2-cFc-YTE

How the values were obtained:
[1] = target: T1, canine IL-4; test: BLI (Octet); summary table, rounded from Table 3
[2] = target: T1, canine IL-4; test: cell-based or functional assay
[3] = target: T1, canine IL-4; test: BLI (Octet HTX), biotin-cIL-4 on SA biosensors, fusion protein in solution, 1:1 fit
Experimental: (§1) The binding constants for the cFc fusion proteins provided in Tables 3 and 4 below, were determined using OCTET® HTX. All kinetics measurements were performed by OCTET® HTX using SA® biosensors and DATA ACQUISITION® 12.0 software. 10 μg/mL of biotin-labeled antigen, either canine IL-4 (cIL-4) or canine IL-13 (cIL-13) were loaded onto the SAR biosensors for 120 seconds. Next, the biosensors were placed into 1×pH 7.0 TBS/Casein buffer for 60 seconds for the blocking phase. For the association phase, antigen loaded biosensors were placed into 2-fold serial dilutions from 1 μM down to 15.6 nM of the wild-type, the bispecific, or the FcRn-mutant receptor Fc-fusions that recognized the cIL-4 or cIL-13 antigen in 1×pH 7.0 TBS/Casein buffer for 30 seconds. The last well was buffer alone and that sensor was used for reference sensor subtraction. Finally, the biosensors were placed into 1×pH 7.0 TBS/Casein buffer for 120 seconds for the dissociation phase. The results were then analyzed using Data Analysis 12.0 software and the curves were fitted using a 1:1 binding model.

[4] = target: T1, canine IL-4; test: cell-based or functional assay; remark: listed apart in the source
[5] = target: T2, canine IL-13; test: BLI (Octet HTX), biotin-cIL-13 on SA biosensors, fusion protein in solution, 1:1 fit
Experimental: as §1

[6] = target: T1, canine IL-4; test: BLI (Octet)
Experimental: as §1

[7] = target: T2, canine IL-13; test: BLI (Octet)
Experimental: as §1

[8] = target: T2, canine IL-13; test: BLI (Octet); summary table, rounded from Table 4
[9] = target: T2, canine IL-13; test: cell-based or functional assay
[10] = target: T2, canine IL-13; test: cell-based or functional assay; remark: listed apart in the source
[11] = target: T2, canine IL-13; test: cell-based or functional assay; remark: listed apart in the source

Binder | Kd [3] [nM] | koff [3] [s⁻¹] | kon [3] [M⁻¹ s⁻¹] | Kd [5] [nM] | koff [5] [s⁻¹] | kon [5] [M⁻¹ s⁻¹] | fold change of KD against the unmodified cIL-4Rα-cFc homodimer [6] [fold] | other results
B1 | 0.00118 | 8.3e-07 | 703000 |  |  |  |  | Kd [1]: 0.001 nM; IL-4 IC50 (inhibition of cIL-4 mediated STAT6 phosphorylation in DH82 cells) [2]: 0.084 nM; IL-4 (IC50), summary table [4]: 0.08 nM
B2 | 9.85 | 0.00234 | 237000 | 0.415 | 3.91e-05 | 94400 | ~10000 | Kd [1]: 10 nM; IL-4 IC50 (inhibition of cIL-4 mediated STAT6 phosphorylation in DH82 cells) [2]: 0.046 nM; fold tighter binding than the unmodified IL-13Rα1-cFc [7]: 8 fold; Kd [8]: 0.4 nM; fold change of the concentration that inhibits 50% of the cIL-13 mediated STAT6 phosphorylation in DH82 cells, against cIL-13Rα1-cFc [9]: 6 fold lower; fold change of the concentration that inhibits 50% of the cIL-13 mediated STAT6 phosphorylation in DH82 cells, against cIL-13Rα2-cFc [9]: ~20 fold higher; IL-13 IC50 (inhibition of cIL-13 mediated STAT6 phosphorylation in DH82 cells) [10]: 3.02 nM; IL-4 (IC50), summary table [4]: 0.05 nM; IL-13 (IC50), summary table [11]: 3 nM
B3 | 0.0111 | 9.23e-06 | 830000 |  |  |  | ~10 | 
B4 | 0.126 | 9.88e-05 | 785000 |  |  |  | ~100 | 
B5 |  |  |  | 16.5 | 0.0011 | 66500 |  | fold decrease in affinity against unmodified cIL-13Rα1-cFc [7]: ~4 fold
B6 |  |  |  | 0.00044 | 5.07e-07 | 1.15e+06 |  | fold decrease of KD against unmodified cIL-13Rα2-cFc [7]: ~2 fold
B7 |  |  |  | 0.000744 | 7.45e-07 | 1e+06 |  | Kd [8]: 0.0007 nM; IL-13 IC50 (inhibition of cIL-13 mediated STAT6 phosphorylation in DH82 cells) [10]: 0.165 nM; IL-13 (IC50), summary table [11]: 0.2 nM
B8 |  |  |  | 0.000432 | 5.04e-07 | 1.17e+06 |  | fold decrease of KD against unmodified cIL-13Rα2-cFc [7]: ~2 fold

Source: US20250325630A1, “HOMODIMER FUSION PROTEINS FOR TREATING ATOPIC DERMATITIS” (Intervet Inc., priority 2021, published 2025)
